System: SREBP-1
Assay: SREBP-1 proteolysis (maturation) assay, Western immunoblot of nuclear fractions, HH-25 hepatocytes
Type: cell-based, human
Settings: HH-25 hepatocytes, sterol independent
Experimental: FIGS. 2A-2C illustrate effects of TNF-α sphingomyelinase and C2-ceramide on the kinetics of SREBP-1 maturation—FIGS. 2A-2C is explained in more detail as follows: Cells were maintained in media supplemented with 1 μg/ml 25-hydroxy cholesterol and 15 μg/ml cholesterol for 24 hours before the experiment. The cells were treated for the indicated time as described in materials and methods. The cells were then harvested in PBS, pelleted and frozen. Lysis and nuclear fractionation were performed as described. Nuclear fractions (50 μg of protein) were electrophoresed on a 7.5% polyacrylamide gel and transferred to a PVDF membrane. Western blotting was performed as described. Band intensity was quantified via densitometry. Error bars represent ±one standard deviation from the mean. 2A) The kinetics of SREBP maturation as measured by the increase in mature SREBP-1 are plotted. Fold increase was calculated by comparing each time point to the corresponding control value (TNF-α is represented by stippled bars, bacterial sphingomyelinase is represented by light gray bars and C2-ceramide by the dark bars.) 2B) Cells were treated with TNF-α (10 ng/ml) and prepared as described above. The bands corresponding to the precursor and mature forms of SREBP-1 were quantified and their ratio plotted. 2C) Representative Western blots from which numerical data was derived. […]

B1: EGF: human recombinant EGF from Upstate Biotechnology (protein, UniProt P01133 23-1207, looked up)
Pro-epidermal growth factor: PQHWSCPEGTLAGNGNSTCVGPAPFLIFSHGNSIFRIDTEGTNYEQLVVDAGVSVIMDFHYNEKRIYWVDLERQLLQRVFLNGSRQERVCNIEKNVSGMAINWINEEVIWSNQQEGIITVTDMKGNNSHILLSALKYPANVAVDPVERFIFWSSEVAGSLYRADLDGVGVKALLETSEKITAVSLDVLDKRLFWIQYNREGSNSLICSCDYDGGSVHISKHPTQHNLFAMSLFGDRIFYSTWKMKTIWIANKHTGKDMVRINLHSSFVPLGELKVVHPLAQPKAEDDTWEPEQKLCKLRKGNCSSTVCGQDLQSHLCMCAEGYALSRDRKYCEDVNECAFWNHGCTLGCKNTPGSYYCTCPVGFVLLPDGKRCHQLVSCPRNVSECSHDCVLTSEGPLCFCPEGSVLERDGKTCSGCSSPDNGGCSQLCVPLSPVSWECDCFPGYDLQLDEKSCAASGPQPFLLFANSQDIRHMHFDGTDYGTLLSQQMGMVYALDHDPVENKIYFAHTALKWIERANMDGSQRERLIEEGVDVPEGLAVDWIGRRFYWTDRGKSLIGRSDLNGKRSKIITKENISQPRGIAVHPMAKRLFWTDTGINPRIESSSLQGLGRLVIASSDLIWPSGITIDFLTDKLYWCDAKQSVIEMANLDGSKRRRLTQNDVGHPFAVAVFEDYVWFSDWAMPSVMRVNKRTGKDRVRLQGSMLKPSSLVVVHPLAKPGADPCLYQNGGCEHICKKRLGTAWCSCREGFMKASDGKTCLALDGHQLLAGGEVDLKNQVTPLDILSKTRVSEDNITESQHMLVAEIMVSDQDDCAPVGCSMYARCISEGEDATCQCLKGFAGDGKLCSDIDECEMGVPVCPPASSKCINTEGGYVCRCSEGYQGDGIHCLDIDECQLGEHSCGENASCTNTEGGYTCMCAGRLSEPGLICPDSTPPPHLREDDHHYSVRNSDSECPLSHDGYCLHDGVCMYIEALDKYACNCVVGYIGERCQYRDLKWWELRHAGHGQQQKVIVVAVCVVVLVMLLLLSLWGAHYYRTQKLLSKNPKNPYEESSRDVRSRRPADTEDGMSSCPQPWFVVIKEHQDLKNGGQPVAGEDGQAADGSMQPTSWRQEPQLCGMGTEQGCWIPVSSDKGSCPQVMERSFHMPSYGTQTLEGGVEKPHSLLSANPLWQQRALDPPHQMELTQ
modifications: Pro-epidermal growth factor
notes: human recombinant EGF from Upstate Biotechnology
**Q.** How did the “induction of SREBP-1 maturation (increase in mature SREBP-1), in words” value turn out when B1 was run?
**A.** The value was “could not be recapitulated”.

From patent publication US6713057B1, “Compositions and methods for modulating serum cholesterol” (The Johns Hopkins University, priority 1999, dated 2004)
